Assay: yeast display, Sf9 membrane polyspecificity reagent, FACS + sequencing; frameworks hold sequencing errors
Outline: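 After 36–48 hours of galactose induction, yeast (Saccharomyces cerevisiae BJ5465) displaying a synthetic nanobody library were stained at 4 °C for 1 hour with 10% biotinylated, detergent-solubilized Sf9 membrane reagent. Streptavidin microbeads enriched the stained cells before FACS sorting into low and high (top ~1%) gates on anti-HA and streptavidin fluorescence. Each clone's polyreactivity label reflects its gate of origin.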

| Sequence | polyreactivity (PSR sort gate) |
| --- | --- |
| QVQLVESGGGLVQAGGSLRLSSAASGRIFRGNEMGWYRQAPGKEREFVAAISWGGGSTYYADSVKGRFTISRDNAKKTVYLQMNSLKPEDTAVYYCAAGSPYAYNYWGQGTQVTVSS | high polyreactivity |
| QVQLVESGGGLVQAGGSLRLSSAASGRIFSRNGMGWYRPAPGKERELVAAIRRYGGSTYYADSVKGRFTISRDNEKNTVNLQMNSLKAEDTAVFFCAAEPYGGGVKHSAYDYWGQGTQVTVSS | low polyreactivity |
| QVQLVESGGGLVQAGGSLRLSSAASGRIFTIYAMGWYRQAPGKERELVATISRRGGSTYYADSVKGRFTISRDNAKNTVYLQMNSLKPEDTAGYYCAADSVITWWAYDYWGQGTQVTVSS | high polyreactivity |
| QVQLVESGGGLVQAGGSLRLSSAASGRIFTVYAMGWYRQAPGKERELVAAITRGGGGTYYADSVKGRFTITRDYAKNTDYLQMNRLKPEDTAVYYCAATHNQVVARYSFNYWGQGTQVTVSS | high polyreactivity |
| QVQLVESGGGLVQAGGSLRLSSAASGRIFYGYAMGWSRQAPGKERELVAAITRSSSTYFADSVKGRFTISRDNAKNTVYLQMNSLKPEDTAVYDCAVYRLSWIGSVQYEYWGQGTQVTVSS | high polyreactivity |
| QVQLVESGGGLVQAGGSLRLSSAASGRIFYQYAMGWYRQAPGKERELVASISRSGTRTYYADSVKGRFTISRDNAKNTVYLQMISLKPEDTAVYYCAARGRASVERRGGYYYWGQGTQVTVSS | high polyreactivity |
| QVQLVESGGGLVQAGGSLRLSSAASGRIIKIYAMGWYRQAPGKERELVAAISGRGGSTYYADSVKGRFTISRDNAKYTVYLQMNSLKPEDTAVYYCAAVGYGFSAYSTYDYWGQGTQVTVSS | high polyreactivity |
| QVQLVESGGGLVQAGGSLRLSSAASGRLFSEYAMGWYRQAPGKERELVAAISRRGGRTYYADSVKGRFTISRDNAKNTVYVQMNSLIPEDTAVYYCAADHGDPGGYDYWGQGSQVTVSS | high polyreactivity |
| QVQLVESGGGLVQAGGSLRLSSAASGRNFYANAMGWSRQAPGKERYFVAAISWGGGSTNYADSVKGRFTISRDNAKNTGYLQKNSQKPEDTAVYYCATGFYYYLTKTIPYEYEYWGLGTQVTVSS | low polyreactivity |
| QVQLVESGGGLVQAGGSLRLSSAASGRTFDFYAMGWYRQAPGKERELVAAITGSDTSTYYADSVKGRFTISRDNAKNTVYLQMNSLKPEDTAVYYCAADGQWAYTVDPYVIYYRLDYWGQGTQVTVSS | low polyreactivity |
| QVQLVESGGGLVQAGGSLRLSSAASGRTFDRNAMGWYRQAPGKERELVAGITRSGDSTYADSVKGRFTISRDNAKITVYLQMNSLKPEDTAVYYCNKEGTVGGTRGYWGQGTQVTVSS | low polyreactivity |
| QVQLVESGGGLVQAGGSLRLSSAASGRTFGVNAMGWYRQAPGKERELVASISWGGGSTYYADSVKGRFTISRDNAKNTVYLQMNSLKPEDTAVYFCNRAYVRYVPMNYWGQGTQVTVSS | high polyreactivity |
| QVQLVESGGGLVQAGGSLRLSSAASGRTFQRNVMGWYRQAPGKDRELVAAISSSGGGTYYADSVKGRFTISRDNAKNTVYLQMNSLKPEDTAVYYCAARYRSYGGYGYYYWGLGTQVTVSS | high polyreactivity |
| QVQLVESGGGLVQAGGSLRLSSAASGRTFSGYAMGWYRQAPGKERELVASISGSGSSTYYADSVKGRFTISRDNAMNTVYLQMNSLKPEDTAVYYCAKRSFYYRIQTGYNYWGQGTQVTVSS | high polyreactivity |
| QVQLVESGGGLVQAGGSLRLSSAASGRTFVINAMGWYRQAPGKERELVAAITWGGGSTYYADSVKGRFTISRDNAKNTVYLQMNSLKQEDSAVYYCATSYSVQYGGSGYYWGQGTQVTVSS | low polyreactivity |
| QVQLVESGGGLVQAGGSLRLSSAASGRTFYYNAMGWYRQAPGKEREFVAVMTSSGGSTYYADSVKGRFTISRDNAKNTVYLQMNSLKPEDTAVYYSAASNTEQQLVVLIEVYYTRYDYWGQGTQETVSS | low polyreactivity |
| QVQLVESGGGLVQAGGSLRLSSAASGRTLSKNAMGWYRQAPGKERELVATISSVGRTNYADSVKGRFTISRDNAKNTVYLQMNSLKPEDTAVYYCAATVRGKRSTYDYWGQGTQVTVSS | high polyreactivity |
| QVQLVESGGGLVQAGGSLRLSSAASGRTSLAYAMGWYRQAPGKERELVAVITSGGNTNYADSVKGRFTISRDNAKNTVYLQMNSLKPEDTAVYYCNKKKRWQWYSESVLDYLGFYSWGQGTQVTVSS | low polyreactivity |
| QVQLVESGGGLVQAGGSLRLSSAASGSIFASYAMGWYRQAPGKERELVAAISRRAVRTYYADSVKGRFTISRDNAKNTVYLQMNSLKPEDSAVYYCNAASSLPGYDYWGQGTQLTVSS | high polyreactivity |
| QVQLVESGGGLVQAGGSLRLSSAASGSIFDKNAMGWYRQAPGKERELVAAIRRTSTTYYADSVKGRFTISRDNAKNTVFLKMNSLKPEDTAVYYCAATYGSGYWYPRYYYWGQGTEVTVSS | high polyreactivity |

| Sequence | polyreactivity (PSR sort gate) |
| --- | --- |
| QVQLVESGGGLVQAGGSLRLSSAASGSIFELNAMGWYRQAPGKERELVASISFRGTSTYYADSVKGRFTISRDYAKNTVYLKMNSLKPDDNAVYYCAADTTFPFSYWGQGTQVTVSS | low polyreactivity |
| QVQLVESGGGLVQAGGSLRLSSAASGSIFGDYVMGWSRQAPGKERELVAAINRGGSTYYADSVKGRFTISRDNAKNTVYLHMNSLKPEDTAVYYCAAGYPSWYYGDPYDSWGQGTQVTVSS | low polyreactivity |
| QVQLVESGGGLVQAGGSLRLSSAASGSIFPKNTMGWYRQAPGKERELVAAISKSGGSTYYADSVKGRFTISRDNAKNTVYLQMNSLKPEDTAVYYCAAALGLRSTSWGRRGGGGDYWGQGTQVTVSS | high polyreactivity |
| QVQLVESGGGLVQAGGSLRLSSAASGSIFRRYALGWYRQEPGKESELVAAISRSAGSTYYADSVKGRFTISRDNAKNTVYLQMNSLKPEETAVYYCKTDPSRSPGDVVSASVIKRDYWGQGTQVTVSS | low polyreactivity |
| QVQLVESGGGLVQAGGSLRLSSAASGSIFRWYAMGWYRQAPGKERELVAAISRGGRTNYADSVKGRFTISRDNAKNTVYLQMNSLKPEDTAVYYCNKVLRNYSSTGVISVLTDYDYWGQGTQVTVSS | high polyreactivity |
| QVQLVESGGGLVQAGGSLRLSSAASGSIFSRYAMGWYRQAPGKEREMVAALNGRGSRTYYADSVKGRFTISRDNSKNTVYLLMNSLKPEDTAVYYCAAESYTAWELDYWGQGTQVTVSS | high polyreactivity |
| QVQLVESGGGLVQAGGSLRLSSAASGSIFYYNAMGWYRQAPGKEREFVAAISARGGSTYYADSVKGRFTISRDNAKNTVYLQMNSLKPEDTAVYYCAASWGLDTYSDSTYWGGYYYSGQGTQVTVSS | low polyreactivity |
| QVQLVESGGGLVQAGGSLRLSSAASGSILYFNAMGWYRQAPGKERELVAAISRSGGSTYYADSVKGRFTISRDNAKNTVYLQMNSLKPEDTAVYYCAAVYIRCRGNRFDYWGQGTQVTVSS | high polyreactivity |
| QVQLVESGGGLVQAGGSLRLSSAASGSNFPPNAMGWYRQAPGKEREFVASITSSGGITNYADSVKGRFTISRDNAKNTVYLQMNSLKPEDTAVYYCAAKYYGGTRFRPYGYWGQGTQVTVSS | high polyreactivity |
| QVQLVESGGGLVQAGGSLRLSSAASGSSFYRYAMGSYRQAPGKERELVATITRSGGSTYYADSVKGRFTISRDNAKNTVYLQMNSLKPEDTAVYYCAARGWYKSDYWGQGTQVTVSS | low polyreactivity |
| QVQLVESGGGLVQAGGSLRLSSAASGSTFAEYAMGWYRQAPGKERELVAAIRWSGGSTSYADSVKGRFTISRDNAKNTVYLQMNSLKPEDTAVYYCAAERFWYDGEVKLYVLSYYWGQGTQVTVSS | low polyreactivity |
| QVQLVESGGGLVQAGGSLRLSSAASGSTFAYYAMGWYRQEPAKEGELVASISWRGGSTYYADSVKGRFTISRDNAKNTVYLQMNSLKPEDTAVYYCAARSTYRPWLLSAYGYWGQGTQVTVSS | low polyreactivity |
| QVQLVESGGGLVQAGGSLRLSSAASGSTFGYYAMGWYRQPPGKERELVAAISSSAGTTYYADSVKGCFTISRDNAKNTVYLQMNSLKPEDTAVYYCAADAVSGREYWGQGTQVTVST | low polyreactivity |
| QVQLVESGGGLVQAGGSLRLSSAASGSTFLYVMGWYRQAPGKERELVAAISESGGSTYYADSVKGRFTISRDNAKNTVYLQMNSLKPEDTAVYYCAADLPTGLQYRYYRVDYWGHGTQVTVSS | low polyreactivity |
| QVQLVESGGGLVQAGGSLRLSSAASGSTFPYVKGWYRQAPGKESEFVAAISQRTGSTYYADSVKGRFTISRDNAKNTVYLQMNSLKPEDTAVYYCAKPGYLRPSRYDYWGQGTQVTVSS | high polyreactivity |
| QVQLVESGGGLVQAGGSLRLSSAASGSTFQDYDMRRSRQAPGKERELVAVISGSGGCTYYADSVKGRFTISRDNAKNTVYLQMNSLKPEDTAVYYCATDIKDGRPGDGVYDYGYWGQGTQVTVSS | low polyreactivity |
| QVQLVESGGGLVQAGGSLRLSSAASGSTFTPYVMGWYRQAPGKERELVAAISKRGGSTYYADSVKGRFTISRDNANNTVYLQMNSLKPEDTAVYYCAAVQPAWGNGYWGQGTQVTVSS | high polyreactivity |
| QVQLVESGGGLVQAGGSLRLSSAASGSTFVQNAIGWYRQAPGKERELVAAISRTGGSTYSAHSVKGRFTIYRDNAKNTVYLEMNSLKPEDTAVYYFAKRPPHYSWPTFIEFGSWGLGTQVTVSS | high polyreactivity |
| QVQLVESGGGLVQAGGSLRLSSAASGSTIRFNAMGWYRQAPGKERELVAVIRWRGGTTYYADSVKGRFTISRDNAKNTVYLQINSLKPEDSAVYYCNADYWFSYTWHGSYTVGYWGQGTQVTVSS | high polyreactivity |
| QVQLVESGGGLVQAGGSLRLSSAATGSIFLSNMGWYRQAPGKERELVAAIYRNGGSTYYADSVKGRFTISRDNAKNTVYLQMNSLKPEDTAVYYCAVQRYWGQGTQVTVSS | high polyreactivity |

— the nanobody polyreactivity screen of Harvey et al. (2022)
